Among the data in patent publication CN117466995A (YIDAO BIOTECHNOLOGY SUZHOU CO LTD, dated 2024) are OD values, retold here.

Test [1] addresses T1, HPV45型衣壳蛋白L1病毒样颗粒(VLP)抗原 (HPV 45型) (UniProt P36741).
T1 sequence: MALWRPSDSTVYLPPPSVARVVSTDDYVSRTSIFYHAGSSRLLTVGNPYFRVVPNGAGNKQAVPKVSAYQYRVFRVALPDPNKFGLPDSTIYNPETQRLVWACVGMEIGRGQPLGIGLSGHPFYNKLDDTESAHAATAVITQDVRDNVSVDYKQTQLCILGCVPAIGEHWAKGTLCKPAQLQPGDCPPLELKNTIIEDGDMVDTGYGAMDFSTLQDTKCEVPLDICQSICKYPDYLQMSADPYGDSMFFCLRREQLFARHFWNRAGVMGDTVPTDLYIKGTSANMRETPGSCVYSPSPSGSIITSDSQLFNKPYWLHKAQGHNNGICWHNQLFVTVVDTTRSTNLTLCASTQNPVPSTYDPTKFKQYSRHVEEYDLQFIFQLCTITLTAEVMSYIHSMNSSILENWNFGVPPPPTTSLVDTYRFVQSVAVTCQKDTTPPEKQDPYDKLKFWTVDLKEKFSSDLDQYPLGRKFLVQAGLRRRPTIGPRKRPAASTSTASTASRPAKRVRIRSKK
Put plainly: sandwich ELISA, rabbit pAb R163 capture 1:500, mAb 1:20000; antigen 13.3 ug/ml, 2.5-fold series, step 3.

Test [2] deals with T1, HPV45型衣壳蛋白L1病毒样颗粒(VLP)抗原 (HPV 45型). Kind of test: sandwich ELISA, rabbit pAb R163 capture 1:500, mAb 1:20000; antigen 13.3 ug/ml, 2.5-fold series, step 8. For orientation: An ELISA detects its analyte on a solid surface through an enzyme-linked reagent.
For test [3] the target is unchanged. Kind of test: sandwich ELISA, rabbit pAb R163 capture 1:500, mAb 1:20000; antigen 13.3 ug/ml, 2.5-fold series, step 9.
The target is the same in test [4]. Put plainly: sandwich ELISA, rabbit pAb R163 capture 1:500, mAb 1:20000; antigen 13.3 ug/ml, 2.5-fold series, step 4.

Values joined by “and” are separate entries in the source; they are usually repeats but may differ in a detail not shown here. Equal values may be shown once.

B1: 杂交瘤细胞株7A5(CGMCC NO:45706)分泌的鼠源单克隆抗体 (antibody, V domains shown)
VH: QPGAELVKPGASVKLSCKASGYTFTSYWMHWVKQRPGQGLEWIGEINPSNGHTNYNEKFKSKATLTVDKSSSTAYMQLSSLTSEDSAVYYCAPCYGSSYDYYAMDYWGQGTSVTVSS
VL: DIVLTQSPASLAVSLGQRATISCRASQSVSTSSYSYMHWYQQKPGQPPKLLIKYASNLESGVPARFSGSGSGTDFTLNIHPVEEEDTATYYCQHSWEIPYTFGGGTKLEIK
notes: also called 鼠单抗7A5; 抗体7A5
Take B1: the OD in test [1] is 2.9 OD and 2.78 OD; in test [2], 0.175 OD and 0.189 OD; in test [3] it was 0.106 OD; in test [4], 2.34 OD and 2.37 OD.

B2: 杂交瘤细胞株11G1(CGMCC NO:45707)分泌的鼠源单克隆抗体 (antibody, V domains shown)
VH: QVQLQQPGAELVKPGASVKLSCKASGYTFTSYWMHWVKRRPGQGLEWIGEINPSNGLTNYNEKFKSKGTLTVDKSSSAAFMHLSSLTSEDSAVYYCARFHGSDLYAMDYWGQGTSVTVSS
VL: DIVLTQSPASLAVSLGQRATISCRASQSVSTSSYSYMHWYQQKPGQPPKLLIKYASNLESGVPARFSGSGSGTDFTLNIHPVEEEDTATYYCQHSWEIPYTFGGGTKLEIK
notes: also called 鼠单抗11G1; 抗体11G1
Consider B2, for which the OD in test [1] was 2.67 OD and 2.65 OD; in test [2] it was 0.115 OD and 0.108 OD; in test [4], 1.82 OD and 1.98 OD.
